Results published in the supplement of paper PMC9732359.
± gives the uncertainty stated by the source.

experiment: protein stability index of a GFP-peptide fusion (yeast GPS) (PSI 1-4); higher = more stable; sorted into four equal gates, so the index is relative within each strain; conditions: doa10∆
How it was run: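 Plasmids isolated from each sorting gate were PCR-amplified and Illumina-sequenced, and barcodes assigned the reads to strains. The gates, four of equal size, were set by GFP/Cherry fluorescence ratio on mid-log cultures in leucine-free medium. These cultures were yeast carrying a pooled library of tiled 17-residue yeast protein peptides fused downstream of GFP on a plasmid that also expresses Cherry. The protein stability index is the sum of every gate's read frequency times its gate number.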

Row | Sequence | protein stability index
1 | MNHDPFSWGRPADSTYG [PRE4] | 3.05 ± 0.086
2 | MNMFGGGMGGGMGGGMP [SRP54] | 1.38 ± 0.055
3 | MNNQPQGTNSVPNSIGN [SNF5] | 2.87 ± 0.074
4 | MPNIELYLKVIPMDFIR [SSN2] | 2.22 ± 0.072
5 | MPSRFTKTRKHRGHVSA [RPL28] | 1.92 ± 0.06
6 | MQKPVPFVPVLDRRFEI [FAS1] | 1.98 ± 0.034
7 | MQKQHEMKTQAAELQEK [SNF6] | 1.79 ± 0.14
8 | MQQAQFQAQQAQQAQQA [SNF2] | 2.56 ± 0.043
9 | MRDKSFGRTLASVTKEI [RPL12A] | 3.25 ± 0.1
10 | MRFNIEIIADWIWDMNV [BRR2] | 2.61 ± 0.066
11 | MSAPQAKILSQAPTELE [RPS7A] | 2.79 ± 0.08
12 | MSDSIISFAAFILADAG [RPP1B] | 1.62 ± 0.069
13 | MSDVEEVVEVQEETVVE [RPS12] | 3.15 ± 0.1
14 | MSGILHCEDKDYKTAFS [RPN6] | 2.95 ± 0.07
15 | MSGSLSRGNGGKKVLNK [POP1] | 1.34 ± 0.15
16 | MSLINDAMVTRTPVIIS [SMD2] | 1.26 ± 0.07
17 | MSNDPGNEVSSLYPPPP [MED7] | 3.21 ± 0.1
18 | MSNTLFDDIFQVSEVDP [RPB8] | 3.02 ± 0.084
19 | MSRSLANGIINVKEITE [SMC3] | 2.63 ± 0.092
20 | MSVDIDKKASMIISGSR [ASC1] | 2 ± 0.24
21 | MSVEPVVVIDGKGHLVG [RPL16A] | 3.13 ± 0.15
22 | MSVSDNDQALIKVLLRQ [RET1] | 2.48 ± 0.052
23 | MTAAVTSSNIVLETHES [RPT6] | 2.65 ± 0.094
24 | MTAQQAPKWYPSEDVAA [RPL6B] | 1.77 ± 0.11
25 | MTEDIEQKKTATEVTPQ [RPC19] | 2.8 ± 0.12
26 | MTLLTDSLRKLYVDSES [MTW1] | 1.45 ± 0.078

Row | Sequence | protein stability index
27 | MTVTFLILAGQVKVKGQ [YCS4] | 2.34 ± 0.083
28 | MVAATKRRKTHIHKHVK [RET1] | 2.96 ± 0.17
29 | MVCETDVPSEDDPTQLV [RPO21] | 3.03 ± 0.069
30 | MVMREETIKSLEDPYKY [CSN9] | 1.62 ± 0.08
31 | MVSTPELKKYMDKKILL [SMX2] | 3.25 ± 0.15
32 | MYCRPAPSDFSENQRQI [GRR1] | 3.13 ± 0.085
33 | NAASQQPTPRSASNTAK [GAL11] | 2.84 ± 0.082
34 | NAEVVAGNIKCRNDAVN [BRR2] | 2.77 ± 0.11
35 | NAIFLSSEQDYSTLKEL [YCG1] | 2.61 ± 0.078
36 | NANTIETAKMIENMTKE [FAS2] | 2.72 ± 0.073
37 | NAPAWFKLSSESVIEQI [RPS13] | 1.98 ± 0.064
38 | NAPTFNPKYDTSNASMN [YAR002W/NUP60] | 3.01 ± 0.046
39 | NCNIKDFKPPYIYSHVN [SWP82] | 2.73 ± 0.086
40 | NDDFSEVFEFKTFNKIQ [BRR2] | 2.01 ± 0.051
41 | NDDIEWMLSICVEWRLP [YJR042W/NUP85] | 1.64 ± 0.069
42 | NDEVNEDEEDDNISSFH [YCG1] | 3.18 ± 0.12
43 | NDILDELLCGMANKEWR [ECM29] | 2.37 ± 0.14
44 | NDLDYDLIADTITNSSS [YML103C/NUP188] | 2.9 ± 0.061
45 | NDNYSSDMENDNLLLNL [REC8] | 2.9 ± 0.09
46 | NDRNPRLNENKKIGCYM [CSN12] | 3.04 ± 0.069
47 | NDSSATRSWRPPQAGDR [RPB8] | 3.06 ± 0.26
48 | NDTSSGTNAMLPSPESL [SNF5] | 2.73 ± 0.042
49 | NEESTNERLEINQEKPV [SIR4] | 3.31 ± 0.18
50 | NEFQLQWGKYQTFGVDI [SWI1] | 2.98 ± 0.12
51 | NEKIEKRSDLTGANSIY [UBP6] | 2.75 ± 0.086
52 | NEKSQAEQEKAKNIISN [LRP1] | 2.59 ± 0.092
